The text below walks through data of US20250270295A1 (ALBERT LUDWIGS UNIVERSITAET FREIBURG, published 2025).

Changes are numbered by the printed parent chain.

A word on the IC50: it is the midpoint of a concentration-inhibition curve.

T1: soluble human ICOSL ectodomain, V5-His tagged (sICOSL-V5His) (human, UniProt O75144 19-256)
T1 construct: extracellular domain; Control protein with the same tags as the vFcγRs
T1 sequence: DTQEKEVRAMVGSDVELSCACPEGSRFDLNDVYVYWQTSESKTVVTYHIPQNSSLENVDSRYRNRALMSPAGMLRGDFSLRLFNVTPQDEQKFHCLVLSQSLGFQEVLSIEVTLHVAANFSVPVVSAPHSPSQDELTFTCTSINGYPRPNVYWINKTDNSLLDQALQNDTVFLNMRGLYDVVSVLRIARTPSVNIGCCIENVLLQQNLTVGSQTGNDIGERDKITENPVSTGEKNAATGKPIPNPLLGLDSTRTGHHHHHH

T2: soluble gp34 ectodomain W65F, V5-His tagged (sgp34mtrp-V5-His) (HCMV strain AD169)
T2 construct: signal peptide 1-23 left out; V5 and His tags are in the entry; Forms only monomers and dimers; also called sol gp34mtrp; gp34 1-179 W65F
T2 chain: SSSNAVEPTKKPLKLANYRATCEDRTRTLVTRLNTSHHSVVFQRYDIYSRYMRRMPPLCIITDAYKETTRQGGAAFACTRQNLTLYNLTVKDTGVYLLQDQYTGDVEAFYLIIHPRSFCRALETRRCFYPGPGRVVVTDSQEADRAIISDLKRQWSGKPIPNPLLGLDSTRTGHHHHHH

T3: gp34mtrp (W65F) on stably transduced HeLa cells (HCMV strain AD169, UniProt P16809 24-234)
T3 construct: whole, on cells; also called plasma membrane exposed gp34mtrp
T3 sequence: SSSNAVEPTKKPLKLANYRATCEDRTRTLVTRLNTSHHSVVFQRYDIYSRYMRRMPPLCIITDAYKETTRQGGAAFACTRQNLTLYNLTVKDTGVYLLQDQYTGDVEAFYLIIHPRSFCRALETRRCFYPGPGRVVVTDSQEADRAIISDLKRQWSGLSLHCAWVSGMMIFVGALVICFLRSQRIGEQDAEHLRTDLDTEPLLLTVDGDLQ

T4: gp68_ECD_4a* (1-144aa) (HCMV strain AD169, UniProt P16739 24-144)
T4 construct: Shortened by a stop codon that arose in cloning, so a C-terminal tag is doubtful
T4 sequence: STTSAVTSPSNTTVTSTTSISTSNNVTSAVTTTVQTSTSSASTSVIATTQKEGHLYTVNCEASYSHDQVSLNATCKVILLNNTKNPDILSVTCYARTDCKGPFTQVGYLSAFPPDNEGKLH

T5: gp34wt on stably transduced HeLa cells (HCMV strain AD169, UniProt P16809 24-234)
T5 construct: whole, on cells; also called plasma membrane exposed gp34wt
T5 sequence: T3 sequence with F42W

T6: soluble gp34 wild type ectodomain, V5-His tagged (sgp34wt-V5-His) (HCMV strain AD169)
T6 construct: Entry holds signal peptide 1-23 (left out), ectodomain, V5 tag and His tag; Forms monomers, dimers and higher oligomers; also called sol gp34 wt; gp34 1-179
T6 chain: T2 chain with F42W

B1: gp34wt.09 (antibody, V domains shown)
VH: EVQLEQSGPELVKPGASVKMSCKASGYTFTRPYIHWVKQRPGQGLEWIGWIYPGDGITKYNEKFKGKITLTADKSSSAAYMLLSSLTSEDSAIYFCASFTTPVYWGQGTSVTVSS
VL: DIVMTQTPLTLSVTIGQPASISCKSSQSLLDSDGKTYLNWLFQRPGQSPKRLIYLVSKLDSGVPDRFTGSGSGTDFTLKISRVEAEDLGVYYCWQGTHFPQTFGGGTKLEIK
notes: mouse IgG1 hybridoma mAb; leader in entries; also called anti gp34 clone wt.09
B2: gp34wt.11 (antibody, V domains shown)
VH: B1 VH with E1Q, Q6E, F29V, P32S, I57S, I68T, A72V, A78T
VL: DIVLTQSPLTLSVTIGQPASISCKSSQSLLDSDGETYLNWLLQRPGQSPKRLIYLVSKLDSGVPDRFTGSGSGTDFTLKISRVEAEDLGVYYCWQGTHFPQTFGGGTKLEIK
notes: mouse IgG1 hybridoma mAb; leader in entries; also called anti gp34 clone wt.11
B3: gp34wt.12 (antibody, V domains shown)
VH: B1 VH with Q3K, E5Q, Q6E, F29V, P32S, I57S, I68T, A72V, A78T
VL: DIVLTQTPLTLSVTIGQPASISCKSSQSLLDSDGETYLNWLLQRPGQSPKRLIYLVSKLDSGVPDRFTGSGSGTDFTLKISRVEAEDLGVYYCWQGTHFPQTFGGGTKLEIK
notes: mouse IgG1 hybridoma mAb; leader in entries; also called anti gp34 clone wt.12
B4: gp34wt.10 (antibody, V domains shown)
VH: B1 VH with Q3K
VL: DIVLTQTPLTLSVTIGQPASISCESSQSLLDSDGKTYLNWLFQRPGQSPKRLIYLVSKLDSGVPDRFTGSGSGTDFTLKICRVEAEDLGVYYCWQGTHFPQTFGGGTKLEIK
notes: mouse IgG1 hybridoma mAb; leader in entries; also called anti gp34 clone wt.10
B5: gp34wt.15 (antibody, V domains shown)
VH: QVKLQQSGPELVKPGASVKMSCKASGYTFRSYYIHWVKQRPGQGLEWIGWNNPGDGTAKYNEKFKGKTTLTADKSSSTAYMLLSSLTSEDSAIYFCASFNTPDYWGQGTSVTVSS
VL: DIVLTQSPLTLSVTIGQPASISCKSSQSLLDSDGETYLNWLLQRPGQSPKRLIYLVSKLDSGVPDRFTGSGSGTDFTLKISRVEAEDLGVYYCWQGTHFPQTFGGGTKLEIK
notes: mouse IgG1 hybridoma mAb; leader in entries; also called anti gp34 clone wt.15
B6: gp34wt.13 (antibody, V domains shown)
VH: EVQLVESGPELKKPGETVKISCKASGYAFTNYGMNWVKQTPGKGLKWMGWINTYTGKPTYADDFKGRFAFSLETSASSAYLQINNLKNEDTATYFCARRRGNSFDYWGQGTTLTVSS
VL: DIVLTQSPSSLTVTAGEKVTMSCKSSQSLLNSGNQENCLTWYQQKPGQPPRLLIYWASTRESGVPDRFTGSGSGTDFTLTISSVQAEDLAVYYCQNDYTYPLTFGAGTKLELK
notes: mouse IgG2a hybridoma mAb; leader in entries; also called anti gp34 clone wt.13
B7: gp34wt.14 (antibody, V domains shown)
VH: B6 VH with E1Q, Q3K, V5L, E6Q
VL: B6 VL with L4I
notes: mouse IgG2a hybridoma mAb; leader in entries; also called anti gp34 clone wt.14
B8: gp34wt.07 (antibody, V domains shown)
VH: QVKLEESGPELVKTGASVKISCKASGYSFTSYQIYWVKQSHGKSLEWIGHISCYNGATSYNQKFKDKATFTVDTSSSTAYMQFNSLTSEDSAVYFCARYDYAPDYYAMDYWGQGTSVTVSS
VL: DIVLTQTPASLAVSLGQRATISCRASESVDSYGNSFMHWYQQKPGQPPKLLIYLASNLESGVPARFSGSGSRTDFTLTIDPVEAEDAAIYYCQQNNEDPLTFGGGTKLELK
notes: mouse IgG1 hybridoma mAb; leader in entries; also called anti gp34 clone wt.07
B9: gp34wt.08 (antibody, V domains shown)
VH: B8 VH with Q1E, K3Q, E6Q
VL: B8 VL with L4M
notes: mouse IgG1 hybridoma mAb; leader in entries; also called anti gp34 clone wt.08
B10: gp68.03 (antibody, V domains shown)
VH: EVKLEESGPEVKKPGETVKISCKASGYTFTNYGMSWLRQAPGKGLKWMGWINTYTGEPTYADDFKGRFAFSLETSASTAYFQINNLKDEDTTTYFCARRAFGGLDYWGQGTSVTVFS
VL: DIVLTQTPLSLPVSLGDQASISCRSSQSIVHSNGNTYLEWYLQKPGQSPKVLIYKVSKRFSGVPDRFSGSGSETDFTLKISRVEAEDMGVYYCFQGSHVPLTFGAGTKLELKR
notes: mouse IgG1 hybridoma mAb; leader in entries; VH entry see recheck; also called anti gp68 clone 68.03
B11: gp34mtrp.03 (antibody, V domains shown)
VH: EVQLEESGTVLARPGASVKMSCKASGYTFTSYWMHWVKQRPGQGLEWIGAIYPGNSDTGYNQKFKGKARLTAVTSTSTAYLELSSLTDEDSAVYFCTRLGYGDYWGQGTTLTVSS
VL: DIVLTQTPSSMYASLGERVTITCKASQDINSYLTWFQQKPGKSPKTLIYRANRLVDGVPSRFSGSGSGQDYSLTINSLDYEDMGIYYCLQYDEFPPTFGGGTKLEIK
notes: mouse IgG1 hybridoma mAb; leader in entries; also called anti gp34 clone mtrp.03
B12: gp34mtrp.04 (antibody, V domains shown)
VH: B11 VH with Q3K, E5V, E6Q
VL: B11 VL with L4M
notes: mouse IgG1 hybridoma mAb; leader in entries; also called anti gp34 clone mtrp.04
B13: gp34mtrp.05 (antibody, V domains shown)
VH: B10 VH with E5L, E6Q, F116S
VL: DIVMTQSPLSLPVSLGDQASISCRSSQSIVYTNGNTYLEWYLQKPGQSPKLLIYKVSNRFSGVPDRFSGSGSGTDFTLKISRVEAEDLGVYYCFQGSHVPWTFGGGTKLEIK
notes: mouse IgG1 hybridoma mAb; leader in entries; also called anti gp34 clone mtrp.05
B14: gp34mtrp.06 (antibody, V domains shown)
VH: B10 VH with K3Q, E5L, E6Q, D88N, F116S
VL: B13 VL with M4L
notes: mouse IgG1 hybridoma mAb; leader in entries; also called anti gp34 clone mtrp.06

The target in one assay is T1, soluble human ICOSL ectodomain, V5-His …. As to the kind of experiment: western blot. Background: Immunoblotting shows a protein as a band on a membrane.
With B1, the binding result is listed as “no binding”.
As to B2, the binding result is on record as “no binding”.
On the same count and under the same terms, the result for B3 reads “no binding”.
Same read-out and setting: as for B4, the entry is “no binding”.
On the same count and under the same terms, as for B5, the entry is “no binding”; as for B6, “no binding”; as for B7, “no binding”.
In the case of B8, the binding result was “no binding”.
On the same count and under the same terms, as for B9, the entry is “no binding”.
Consider B10, for which the binding result is “no binding”.

For another assay, the target named is T2, soluble gp34 ectodomain W65F, V5-His …. Briefly: ELISA mtrp.
Consider B1, for which the binding result is “no binding”.
Still for that read-out and setting: the result for B2 reads “no binding”; that for B3, “no binding”; that for B4, “no binding”.
For B11, the binding result is reported as “binds”.
Still for that read-out and setting: the result for B12 reads “binds”; that for B8, “no binding”; that for B9, “no binding”.
Still for that read-out and setting: the result for B13 reads “binds”; that for B14, “binds”.

The next assay concerns the target T3, gp34mtrp (W65F) on stably transduced …. Briefly: flow cytometry, HeLa. (A flow cytometer gives signals particle by particle.)
Regarding B1, the binding result is reported as “no binding (tested: 1 µg/ml)”.
Still for that read-out and setting: as for B2, the entry is “no binding (tested: 1 µg/ml)”; as for B3, “no binding (tested: 1 µg/ml)”; as for B4, “no binding (tested: 1 µg/ml)”.
Still for that read-out and setting: as for B5, the entry is “no binding (tested: 1 µg/ml)”; as for B8, “no binding (tested: 1 µg/ml)”.
Still for that read-out and setting: the result for B9 reads “no binding (tested: 1 µg/ml)”.

For the next assay, the target named is T7, gp68_ECD_1 (1-201 aa) (HCMV strain AD169, UniProt P16739 24-201).
T7 construct: signal peptide 1-23 left out
Briefly: ELISA, coated supernatant. For orientation: ELISA stands for enzyme-linked immunosorbent assay.
As to B10, the binding result is reported as “no binding (tested: 1 µg/ml)”.

The target of the next assay is T4, gp68_ECD_4a* (1-144aa). Briefly: ELISA, coated supernatant.
As to B10, the binding result was “no binding (tested: 1 µg/ml)”.

The target in a further assay is gp68_ECD_4b (1-152) (HCMV strain AD169, UniProt P16739 24-152). Briefly: ELISA, coated supernatant.
B10: the binding result is listed as “no binding (tested: 1 µg/ml)”.

Another assay addresses T5, gp34wt on stably transduced HeLa cells. As to the kind of experiment: flow cytometry, HeLa, 1 µg/ml.
In the case of B1, the binding result is recorded as “binds”.
Still for that read-out and setting: the result for B2 reads “binds”; that for B3, “binds”; that for B4, “binds”.
The same measure, in the same setting: as for B5, the entry is “binds”.

The target of a further assay is T6, soluble gp34 wild type ectodomain, …. As to the kind of experiment: sgp34wt pre-incubated with mAb, ELISA on CRP.
Text: In addition, binding of sgp34wt to immobilized CRP in absence of any mAb is depicted.
With B11, the “percent blocking of gp34-CRP-binding” value was about 50%.
For the molecule B12, the “percent blocking of gp34-CRP-binding” value is about 50%.
As for B13, the “percent blocking of gp34-CRP-binding” value is about 50%.
The same measure, in the same setting: the result for B14 reads about 50%.

The next assay has the same target. As to the kind of experiment: sgp34wt pre-incubated with mAb, ELISA on FcRn.
Experimental: Furthermore, the gp34wt and FcRn interaction was investigated whereby various anti-gp34 mAbs were analyzed and their potential to block this interaction was identified. Experiments were performed as described before for IgG-blocking ELISA, but this time using immobilized FcRn as a novel gp34-ligand.
In addition, binding of sgp34wt to immobilized FcRn in absence of any mAb is depicted.
In the case of B11, the “percent blocking of gp34 FcRn-binding” value is at most 50%.
Still for that read-out and setting: as for B12, the figure is at most 50%; as for B13, at most 50%.
Same read-out and setting: the result for B14 reads at most 50%.

Another assay has the same target. Briefly: blocking of sgp34wt binding to immobilized human IgG, ELISA.
Experimental: FIG. 44: IgG blocking ability by anti-gp34mtrp mAbs. vFcγR gp34 is an HCMV encoded IgG-Fc-binding. Anti-gp34mtrp-specific mAbs (in titration) were pre-incubated with recombinant, sgp34wt (constant amount 1 μg/ml) and added to IgG-immobilized ELISA plates. […] Dose-dependent potential of mAbs used for blocking is indicated. Effect by non-specific mouse IgG isotype IgG1 is shown. In addition, binding of sgp34wt to immobilized IgG in absence of any mAb is depicted.
To test if anti-gp34wt specific mAbs can interfere with IgG-binding ability of gp34 and human IgG. Therefore, recombinant, sgp34wt was pre-incubated with indicated anti-gp34wt specific mAbs, mouse IgG isotype or PBS only. Next, antibody bound sgp34wt was incubated on IgG-immobilized ELISA plates.
Anti-gp34wt-specific mAbs (in titration) were pre-incubated with recombinant, sgp34wt (constant amount 1 μg/ml) and added to IgG-immobilized ELISA plates. […] Dose-dependent potential of mAbs used for blocking is indicated. […] In addition, binding of sgp34wt to immobilized IgG in absence of any mAb is depicted.
The molecule B1 returned an IC50 of 0.063 µg/mL.
With B2, the 50% inhibitory concentration (IC50) stood at 0.077 µg/mL.
Same read-out and setting: as for B3, the figure is 0.07 µg/mL; as for B4, 0.089 µg/mL; as for B5, 0.12 µg/mL.
B11 gave a 50% inhibitory concentration (IC50) of 0.152 µg/mL.
On the same count and under the same terms, the result for B12 reads 0.147 µg/mL.
The same measure, in the same setting: the result for B8 reads 0.447 µg/mL; that for B9, 0.494 µg/mL.
The same measure, in the same setting: the result for B13 reads 5.34 µg/mL; that for B14, 4.46 µg/mL.
